{"source": "paper PMC7534470", "about": "(The Plant Cell, 2020)", "binders": {"B1": {"name": "His-COR27 (natural protein, Arabidopsis thaliana, UniProt Q8L8T7 1-246, looked up)", "chain": "MVGDYRGRFSSRRFSDDSDDSSDDASSVEGETTSSMYSAGKEYMETEWTNEKHSLYLKSMEASFVDQLYNSLGALGKNENVSESTRFGSGRKPSQEQFKVLHDGFWQKINVKQPEHRINGRHGGNSHEFLRSPWIKHYKPLVKTQIPVTDEPENQVVSSSNGKKGICSSGSASSLKQLSSHSRDHDQISVGEAEVSDQNFVNEGIKGENGSSKKMKTVMMSESSSTDQVVPLNKLLQHDVNLKSVS"}}, "target": "T1, MBP-COP1 (Arabidopsis thaliana, UniProt P43254 1-675)", "T1 sequence (looked up)": "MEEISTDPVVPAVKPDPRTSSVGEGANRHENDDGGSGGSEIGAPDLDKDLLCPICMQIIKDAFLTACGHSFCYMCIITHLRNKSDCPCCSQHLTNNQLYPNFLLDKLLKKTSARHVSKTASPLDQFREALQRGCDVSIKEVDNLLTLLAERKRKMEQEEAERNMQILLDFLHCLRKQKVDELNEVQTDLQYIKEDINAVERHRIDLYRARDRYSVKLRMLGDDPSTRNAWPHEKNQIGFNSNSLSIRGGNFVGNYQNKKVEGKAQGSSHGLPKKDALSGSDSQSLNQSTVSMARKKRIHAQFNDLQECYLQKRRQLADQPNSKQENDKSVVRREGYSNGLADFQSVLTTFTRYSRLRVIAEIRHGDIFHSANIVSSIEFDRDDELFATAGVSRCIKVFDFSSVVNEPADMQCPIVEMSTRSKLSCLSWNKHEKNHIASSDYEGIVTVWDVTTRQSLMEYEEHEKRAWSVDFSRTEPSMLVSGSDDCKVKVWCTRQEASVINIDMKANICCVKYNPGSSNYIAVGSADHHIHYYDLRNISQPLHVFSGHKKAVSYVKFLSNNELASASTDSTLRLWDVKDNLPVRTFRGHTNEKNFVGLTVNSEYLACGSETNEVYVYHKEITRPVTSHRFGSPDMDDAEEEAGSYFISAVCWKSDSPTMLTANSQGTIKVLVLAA", "experiment": "pull-down"}
{"binder": "B1", "values": [{"measurement": "binding result", "value": "binds"}]}
